The values that follow come from patent US20090117124A1 (Pfizer, published 2009).

For test [1], the target named is T1, cynomolgus monkey IgE (in cynomolgus serum, Harlan Sera-Lab Ltd) (cynomolgus monkey).
T1 construct: Serum was the source of IgE; eight serum samples; also called cynomolgus IgE; Cyno 1 to Cyno 8 serum samples
Description: capture ELISA, Test 1, Cyno 6. The method, then: (§1) Wells were washed once with 150 μL/well wash buffer (0.05% Tween-20, Sigma, Cat. No. P7949/TBS) then blocked with 150 μL/well 1% BSA (Sigma, Cat. No. A7030) in TBS for 2 hours at room temperature. Wells were washed twice with 150 μL wash buffer. 50 μL human (in-house donors) or cynomolgus serum (Harlan Sera-Lab Ltd, Loughborough) was added from neat to at least 1:16 dilution in 1% BSA/0.05% Tween-20/TBS diluent buffer. […] Wells were incubated for 2 hours at 25° C. before washing (3×150 μL wash buffer). […] Wells were incubated for 1 hour at 25° C. then washed (3×150 μL wash buffer). Streptavidin-HRP (Amersham Bioscience, Cat. No. RPN 1231) diluted 1:1000 in diluent buffer was added to all wells and incubated for 45 minutes at room temperature. Wells were washed (3×150 […] wash buffer). 50 μL OPD (Dako, Cat. No. S2045) was added to all wells and the color allowed to develop for 10 minutes before stopping the reaction with 50 μl 0.6M H₂SO₄ and the absorbance measured at 490 nm.
On the technique in general: In an ELISA, binding on a coated surface is turned into a signal by an enzyme label.

Test [2] has as its target T1, cynomolgus monkey IgE (in cynomolgus …). Description: capture ELISA, Test 1, Cyno 2. The method, then: as §1
Test [3] shares this target. Description: capture ELISA, Test 1, Cyno 7. The method, then: as §1
Test [4] shares this target. Nature of the test: capture ELISA, Test 1, Cyno 3. The method, then:
as §1

The target is the same in test [5]. Nature of the test: capture ELISA, Test 1, Cyno 1. The protocol: as §1
Test [6] has the same target. Description: capture ELISA, Test 1, Cyno 5. The method, then: as §1
Test [7] concerns the target T2, human IgG3 (Biodesign, Cat. No. A50186H) (human).
T2 construct: Bought immunoglobulin coated on the plate
Nature of the test: ELISA on coated immunoglobulin. The method, then: (§2) Wells were washed 3× with 150 μL wash buffer (0.05% Tween-20 (Sigma, Cat. No. P7949)/PBS) then blocked with 150 μL/well blocking buffer (2.5% BSA (Sigma, Cat. No. A7030)/PBS) for 2 hours at room temperature. Wells were washed 3× with 150 μL wash buffer/well. […] Antibodies were diluted in diluent buffer (PBS/1% BSA/0.05% Tween-20) and this was added to blank control wells (duplicate wells for each secondary antibody used). Antibodies were incubated for 2 hours at room temperature. Wells were washed 3× with 150 μL wash buffer/well. Binding of control antibodies to immunoglobulin was detected with anti-mouse IgG-HRP conjugate (Sigma, Cat. No. A4416) diluted 1:8000 in diluent buffer. 50 μL/well was added to control antibody and blank wells. Wells were incubated for 1 hour at room temperature, then washed 3× with 150 μL wash buffer/well. 50 μl OPD (Dako, Cat. No. […] Wells were incubated for 1 hour at room temperature then washed 3× with 150 μL wash buffer/well. Streptavidin-HRP (Amersham Bioscience, Cat. No. RPN 1231) diluted 1:2000 in diluent buffer was added to all wells and incubated for 45 minutes at room temperature. Wells were washed (3×150 μL wash buffer).

Test [8] deals with T3, human IgG1 (Biodesign, Cat. No. A50183H) (human).
T3 construct: Bought immunoglobulin coated on the plate
Description: ELISA on coated immunoglobulin. The method, then:
as §2

The target in test [9] is T4, human IgA (Sigma, Cat. No. I2636) (human).
T4 chain: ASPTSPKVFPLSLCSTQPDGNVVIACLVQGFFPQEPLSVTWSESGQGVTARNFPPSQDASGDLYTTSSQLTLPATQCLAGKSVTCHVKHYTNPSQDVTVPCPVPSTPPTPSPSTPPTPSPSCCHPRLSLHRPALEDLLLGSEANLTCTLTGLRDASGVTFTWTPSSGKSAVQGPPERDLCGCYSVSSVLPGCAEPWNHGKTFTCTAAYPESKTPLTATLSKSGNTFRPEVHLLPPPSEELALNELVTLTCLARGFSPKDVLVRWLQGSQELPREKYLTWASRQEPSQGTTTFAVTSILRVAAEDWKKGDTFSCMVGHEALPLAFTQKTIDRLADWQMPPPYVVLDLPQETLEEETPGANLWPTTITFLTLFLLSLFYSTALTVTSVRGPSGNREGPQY
Description: ELISA on coated immunoglobulin. The method, then:
as §2

Test [10] has as its target T1, cynomolgus monkey IgE (in cynomolgus …). Description: capture ELISA, Test 1, Cyno 4. The protocol:
as §1

The target is the same in test [11]. Description: capture ELISA, Test 2, Cyno 1. The method, then: as §1
Test [12] has the same target. Nature of the test: capture ELISA, Test 2, Cyno 5. The method, then:
as §1

Test [13] has the same target. Nature of the test: capture ELISA, Test 2, Cyno 8. The protocol:
as §1

The target is the same in test [14]. Description: capture ELISA, Test 2, Cyno 6. The protocol:
as §1

Test [15] shares this target. Description: capture ELISA, Test 2, Cyno 2. The protocol: as §1
Test [16] has the same target. Nature of the test: capture ELISA, Test 2, Cyno 4. The method, then:
as §1

For test [17] the target is unchanged. Description: capture ELISA, Test 2, Cyno 3. The method, then:
as §1

The target is the same in test [18]. Nature of the test: capture ELISA, Test 2, Cyno 7. The method, then: as §1

B1: 6.605.1 (recombinant) (antibody, human IgG2, kappa, V domains shown)
VH: QVHLVQSGAEVKMPGASVKVSCKASGYTFTSYGISWVRQAPGQGLEWMGWISAYNGNTNYAQKLQGRITMTTDTSTSTAYMDLRSLRSDDTAVYYCARDGDYYDPFDYWGQGTLVTVSS
VL: DIQMTQSPSSLSASVGDRVTITCRTSQSISNWLNWYQQKPGKAPKLLIYGASTLKSGVPSRFSGSESGTDFTLTISSLQPEDFATYYCQQSYSTPPTFGQGTKVEIKR
notes: Human IgG2 kappa; leader omitted; also called recombinant 6.605.1
In the case of B1, the IgE concentration detected in test [1] came out at 0 ng/mL; in [2], 91 ng/mL; in test [3], 0 ng/mL; in test [4], 107 ng/mL; in test [5], 120 ng/mL; in test [6], 140 ng/mL. In [10], this molecule displayed an IgE concentration detected of 0 ng/mL. Moreover, the figures for the A290 nm in [7], in test [8] and in [9] were 0.05 A290 nm, 0.07 A290 nm and 0.04 A290 nm, respectively.

B2: 6.605.1 Hc-H3Q, M13K, D82E Lc-T25A, T53S (antibody, human IgG2, kappa, V domains shown)
VH: QVQLVQSGAEVKKPGASVKVSCKASGYTFTSYGISWVRQAPGQGLEWMGWISAYNGNTNYAQKLQGRITMTTDTSTSTAYMELRSLRSDDTAVYYCARDGDYYDPFDYWGQGTLVTVSS
VL: DIQMTQSPSSLSASVGDRVTITCRASQSISNWLNWYQQKPGKAPKLLIYGASSLKSGVPSRFSGSESGTDFTLTISSLQPEDFATYYCQQSYSTPPTFGQGTKVEIKR
notes: Human IgG2 kappa; leader omitted; also called 6.605.1 (H3Q, M13K, D82E-T25A, T53S); 6.605.1 QKE/AS
B2: the IgE concentration detected in [2] came to 103 ng/mL; in test [3], 0 ng/mL; in [4] it was 122 ng/mL; in [5], 133 ng/mL; in [6], 173 ng/mL; in test [10] it was 0 ng/mL. Besides, the values for the A290 nm in [7], in [8] and in test [9] were 0.04 A290 nm, 0.07 A290 nm and 0.04 A290 nm, respectively.

B3: 5.396.1 (recombinant) (antibody, human IgG2, kappa, V domains shown)
VH: QVQLQQWGAGLLKPSETLSLTCAVYGGSFSGYYWSWIRQPPGKGLEWIGEIHHSGSTNYNPSLKSRVTISVDTSKNQFSLKLSSVTAADTAVYYCARDNWNDSFYYYYGMDVWGQGTTVTVSS
VL: DIQMTQSPSSLSASVGDRVTITCRASQGISNHLAWFQQKPGKAPKSLIYAASSLQSGVPSKFSGSGSGTDFTLTISSLQPEDFATYYCQQYNRHPFTFGPGTKVDIKR
notes: Fully human IgG2 kappa, expressed in 293 Freestyle cells; also called recombinant 5.396.1
On to B3, for which the IgE concentration detected was found to be 3 ng/mL in test [1]; 0 ng/mL in test [2]; 0 ng/mL in test [3]; 30 ng/mL in test [5]; 37 ng/mL in test [6]; 0 ng/mL in test [10]. The values for the A290 nm in test [7], in test [8] and in test [9] were 0.05 A290 nm, 0.07 A290 nm and 0.04 A290 nm, respectively.

B4: 5.396.1 Hc-S103N Lc-K61R (antibody, human IgG2, kappa, V domains shown)
VH: QVQLQQWGAGLLKPSETLSLTCAVYGGSFSGYYWSWIRQPPGKGLEWIGEIHHSGSTNYNPSLKSRVTISVDTSKNQFSLKLSSVTAADTAVYYCARDNWNDNFYYYYGMDVWGQGTTVTVSS
VL: DIQMTQSPSSLSASVGDRVTITCRASQGISNHLAWFQQKPGKAPKSLIYAASSLQSGVPSRFSGSGSGTDFTLTISSLQPEDFATYYCQQYNRHPFTFGPGTKVDIKR
notes: Human IgG2 kappa; leader omitted; also called 5.396.1 (S103N/K61R); 5.396.1 S103N/K61R
Take B4: the IgE concentration detected in [1] was found to be 0 ng/mL; in [11], 57 ng/mL; in [12], 102 ng/mL; in [13], 0 ng/mL; in test [2], 0 ng/mL; in test [3] it was 0 ng/mL. The IgE concentration detected in test [4] stood at 39 ng/mL; in test [14], 0 ng/mL; in [15], 39 ng/mL; in test [5] it was 41 ng/mL; in [6], 57 ng/mL; in [16], 0 ng/mL. In addition, the IgE concentration detected in [17] worked out at 53 ng/mL; in [18] it was 0 ng/mL; in test [10], 0 ng/mL. For the same molecule, the A290 nm in test [7] was 0.05 A290 nm; in test [8] it was 0.08 A290 nm; in [9], 0.04 A290 nm.
